# Results reported in publication PMC8138844 (Cell Research, 2021).
# B1: BD-515 Fab (Fab, V domains shown)
# VH: EVQLVESGGGLVQPGGSLRLSCAASEFIVSRNYMSWVRQAPGKGLEWVSVIYSGGSTFYADSVKGRFTISRDNSKNTLYLQMNSLRAEDTGVYYCARDRGLVSDYWGQGTLVTVSS
# VL: DIQMTQSPSSLSASVGDRVTITCQASQDINKYLNWYQQKPGKAPKLLIFDASHLETGVPSRFSASGSGTDFTFTISSLQPEDIATYYCHQYDNLPRTFGQGTRLEIK
# B2: BD-623 Fab (Fab, V domains shown)
# VH: EVQLVESGGGLVQPGGSLRLSCAASGVTVSSNYMSWVRQAPGKGLEWVSAVYSGGSTYYADSVKGRFTISRHNSKNTLYLQMKSLRPEDTAIYYCARLINHYYDSSGDGGAFDIWGQGTMVTVSS
# VL: LTQPASVSGSPGQSITISCTGTSSDVGSYNLVSWYQQRPGKAPKLILYEVTKRPSGVSNRFSGSKSGNTASLAISGLQAEDEADYYCCSYAGSSTWVFGGGTKLTVL
# B3: BD-508 Fab (Fab, V domains shown)
# VH: EVQLVESGGGLVQPGGSLRLSCAASGFIVSSNYMTWVRQAPGKGLEWVSVIYSGGSTFYADSVKGRFTISRHNSKNTLFLQMNSLRAEDTAVYYCARDAQNYGMDVWGQGTTVTVSS
# VL: DIQMTQSPSSLSASVGDRVTITCRASQSISSYLNWYQQKPGKAPKLLIFAASSLQTGAPSRFSGSGSGTDFTLTISSLQPEDFATYYCQQSYSTPPYTFGQGTKLEIK
# Target: SARS-CoV-2 S protein receptor-binding domain (RBD), residues 319–541 (SARS-CoV-2, UniProt P0DTC2)
# Assay: crystal structure
# Conditions: both partners purified
row,Binder,binding result
1,B1,binds
2,B2,binds
3,B3,binds
